First the molecules themselves.
B1: LRRC8A (leucine-rich repeat-containing protein 8, family member A), human (other, UniProt Q8IWT6 1-810, looked up)
chain: MIPVTELRYFADTQPAYRILKPWWDVFTDYISIVMLMIAVFGGTLQVTQDKMICLPCKWVTKDSCNDSFRGWAAPGPEPTYPNSTILPTPDTGPTGIKYDLDRHQYNYVDAVCYENRLHWFAKYFPYLVLLHTLIFLACSNFWFKFPRTSSKLEHFVSILLKCFDSPWTTRALSETVVEESDPKPAFSKMNGSMDKKSSTVSEDVEATVPMLQRTKSRIEQGIVDRSETGVLDKKEGEQAKALFEKVKKFRTHVEEGDIVYRLYMRQTIIKVIKFILIICYTVYYVHNIKFDVDCTVDIESLTGYRTYRCAHPLATLFKILASFYISLVIFYGLICMYTLWWMLRRSLKKYSFESIREESSYSDIPDVKNDFAFMLHLIDQYDPLYSKRFAVFLSEVSENKLRQLNLNNEWTLDKLRQRLTKNAQDKLELHLFMLSGIPDTVFDLVELEVLKLELIPDVTIPPSIAQLTGLKELWLYHTAAKIEAPALAFLRENLRALHIKFTDIKEIPLWIYSLKTLEELHLTGNLSAENNRYIVIDGLRELKRLKVLRLKSNLSKLPQVVTDVGVHLQKLSINNEGTKLIVLNSLKKMANLTELELIRCDLERIPHSIFSLHNLQEIDLKDNNLKTIEEIISFQHLHRLTCLKLWYNHIAYIPIQIGNLTNLERLYLNRNKIEKIPTQLFYCRKLRYLDLSHNNLTFLPADIGLLQNLQNLAITANRIETLPPELFQCRKLRALHLGNNVLQSLPSRVGELTNLTQIELRGNRLECLPVELGECPLLKRSGLVVEEDLFNTLPPEVKERLWRADKEQA
notes: whole, on cells; Used for endogenous LRRC8A and for transfected LRRC8A; Co-IPs were done on detergent lysates; also called endogenous LRRC8A; native LRRC8A

In test [1] the target is T1, KCC1 plasma membrane ion transporter, endogenous in HEK cells (UniProt Q9UP95 1-1085, limits assumed).
T1 construct: whole, on cells; also called SLC12A4
T1 sequence (looked up): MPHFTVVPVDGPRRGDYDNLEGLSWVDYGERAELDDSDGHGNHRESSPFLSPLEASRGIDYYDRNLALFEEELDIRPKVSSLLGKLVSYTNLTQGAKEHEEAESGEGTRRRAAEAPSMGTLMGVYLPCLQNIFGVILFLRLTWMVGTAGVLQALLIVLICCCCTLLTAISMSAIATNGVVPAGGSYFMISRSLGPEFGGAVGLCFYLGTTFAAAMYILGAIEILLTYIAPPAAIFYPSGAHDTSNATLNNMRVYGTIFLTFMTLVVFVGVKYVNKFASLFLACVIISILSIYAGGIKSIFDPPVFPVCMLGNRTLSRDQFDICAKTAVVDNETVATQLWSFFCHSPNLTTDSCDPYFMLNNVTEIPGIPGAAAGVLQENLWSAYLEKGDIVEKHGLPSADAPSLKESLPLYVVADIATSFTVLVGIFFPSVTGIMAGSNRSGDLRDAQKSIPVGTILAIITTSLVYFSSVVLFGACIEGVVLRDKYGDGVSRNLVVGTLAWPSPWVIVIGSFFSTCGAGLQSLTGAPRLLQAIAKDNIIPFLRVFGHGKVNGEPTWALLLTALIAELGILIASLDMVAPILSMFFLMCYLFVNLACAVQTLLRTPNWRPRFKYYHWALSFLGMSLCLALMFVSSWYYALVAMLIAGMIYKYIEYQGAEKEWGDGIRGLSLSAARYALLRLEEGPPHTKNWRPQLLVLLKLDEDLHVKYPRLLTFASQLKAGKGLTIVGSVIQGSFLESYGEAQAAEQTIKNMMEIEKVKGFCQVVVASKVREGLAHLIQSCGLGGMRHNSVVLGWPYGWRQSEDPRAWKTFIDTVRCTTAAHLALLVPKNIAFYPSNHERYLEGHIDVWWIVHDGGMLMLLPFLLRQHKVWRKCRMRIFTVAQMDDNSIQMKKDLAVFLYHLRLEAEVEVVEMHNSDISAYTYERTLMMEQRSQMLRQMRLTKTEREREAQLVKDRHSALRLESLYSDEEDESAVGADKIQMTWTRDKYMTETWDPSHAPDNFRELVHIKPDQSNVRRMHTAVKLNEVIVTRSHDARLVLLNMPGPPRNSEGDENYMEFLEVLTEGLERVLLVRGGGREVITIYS
Briefly: immunoprecipitation with LRRC8A antibody from WT HEK cell lysate, Western blot.

The target of test [2] is GFP-ClC-1 (human ClC-1 Cl- channel in pEGFP-C1) (human, UniProt P42212 1-238 = GFP; P35523 1-988). The experiment in a line: co-immunoprecipitation from double-transfected HEK cells, Western blot. From the text: The changed banding pattern of the mutant might result from altered posttranslational modifications. n.t., non-transfected. (C) Immunofluorescence using HA antibody of non-permeabilized versus permeabilized HeLa cells transfected with GFPLRRC8A carrying an HA-tag as indicated. Overlays of GFP (green) and HA (red) labeling. Insets show exclusively HA-staining. Scale bar, 20 μm. (D) LRRC8A co-precipitated epitopetagged LRRC8B through LRRC8E in double-transfected HEK cells. LRRC8B and LRRC8D were poorly expressible. […] (F) Epitope-tagged LRRC8B through LRRC8E co-precipitated LRRC8A. (G) Heteromerization of endogenous LRRC8 proteins. LRRC8A co-precipitated LRRC8E (for which a suitable antibody was available) in immunoprecipitation with an LRRC8A antibody from wild-type (WT) HEK cell lysate, but not from the LRRC8A−/− knockout (KO, clone 3E7). […] Lysate equivalent to 25% of input was loaded as reference (input).
For co-immunoprecipitation, HEK cells were co-transfected with plasmids (6 μg total) encoding myc-tagged or untagged LRRC8A and N-terminal fusion constructs of LRRC8A-E or ClC-1 (or soluble GFP) on 10 cm dishes using PEI as described above. […] After four washes with 500 μl IP buffer, precipitates were eluted in 40 μl Lämmli sample buffer, separated by SDS-PAGE and analyzed by Western blot as indicated. […]

For test [3], the target named is LRRC8C-GFP (human LRRC8C fused C-terminally to GFP) (human, UniProt Q8TDW0 1-803; P42212 1-238 = GFP). The experiment in a line: cell-based or functional assay.
The target of test [4] is LRRC8E-GFP (human LRRC8E fused C-terminally to GFP) (human, UniProt Q6NSJ5 1-796; P42212 1-238 = GFP). Briefly: cell-based or functional assay.
Test [5] concerns the target LRRC8D-GFP (human LRRC8D fused C-terminally to GFP) (human, UniProt Q7L1W4 1-858; P42212 1-238 = GFP). Briefly: cell-based or functional assay.
The target of test [6] is B1. The experiment in a line: immunoprecipitation of endogenous proteins from WT HEK lysate.

Two molecules from US20150253303A1 (FORSCHUNGSVERBUND BERLIN E V, published 2015) can be followed below.

B1: the binding result in test [1] and in test [2] was “no binding” in each case. For the same molecule, the “V1/2 from Boltzmann fits (voltage-dependent inactivation of ICl(swell))” value in test [3] worked out at 116 mV; in test [4], 45.9 mV; in test [5] it was 72.4 mV.

B2: LRRC8E, endogenous (native) human protein (other, UniProt Q6NSJ5 1-796, looked up)
chain: MIPVAEFKQFTEQQPAFKVLKPWWDVLAEYLTVAMLMIGVFGCTLQVTQDKIICLPNHELQENLSEAPCQQLLPRGIPEQIGALQEVKGLKNNLDLQQYSFINQLCYETALHWYAKYFPYLVVIHTLIFMVCTSFWFKFPGTSSKIEHFISILGKCFDSPWTTRALSEVSGENQKGPAATERAAATIVAMAGTGPGKAGEGEKEKVLAEPEKVVTEPPVVTLLDKKEGEQAKALFEKVKKFRMHVEEGDILYTMYIRQTVLKVCKFLAILVYNLVYVEKISFLVACRVETSEVTGYASFCCNHTKAHLFSKLAFCYISFVCIYGLTCIYTLYWLFHRPLKEYSFRSVREETGMGDIPDVKNDFAFMLHLIDQYDSLYSKRFAVFLSEVSESRLKQLNLNHEWTPEKLRQKLQRNAAGRLELALCMLPGLPDTVFELSEVESLRLEAICDITFPPGLSQLVHLQELSLLHSPARLPFSLQVFLRDHLKVMRVKCEELREVPLWVFGLRGLEELHLEGLFPQELARAATLESLRELKQLKVLSLRSNAGKVPASVTDVAGHLQRLSLHNDGARLVALNSLKKLAALRELELVACGLERIPHAVFSLGALQELDLKDNHLRSIEEILSFQHCRKLVTLRLWHNQIAYVPEHVRKLRSLEQLYLSYNKLETLPSQLGLCSGLRLLDVSHNGLHSLPPEVGLLQNLQHLALSYNALEALPEELFFCRKLRTLLLGDNQLSQLSPHVGALRALSRLELKGNRLEALPEELGNCGGLKKAGLLVEDTLYQGLPAEVRDKMEEE
notes: whole, on cells; Untagged endogenous protein in cell lysates; also called native LRRC8E
Turning to B2, the binding result in test [6] is given as “binds”.
